B1: Speckle-type POZ protein (Homo sapiens), O43791 (parent)
chain: MSRVPSPPPPAEMSSGPVAESWCYTQIKVVKFSYMWTINNFSFCREEMGEVIKSSTFSSGANDKLKWCLRVNPKGLDEESKDYLSLYLLLVSCPKSEVRAKFKFSILNAKGEETKAMESQRAYRFVQGKDWGFKKFIRRDFLLDEANGLLPDDKLTLFCEVSVVQDSVNISGQNTMNMVKVPECRLADELGGLWENSRFTDCCLCVAGQEFQAHKAILAARSPVFSAMFEHEMEESKKNRVEINDVEPEVFKEMMCFIYTGKAPNLDKMADDLLAAADKYALERLKVMCEDALCSNLSVENAAEILILADLHSADQLKTQAVDFINYHASDVLETSGWKSMVVSHPHLVAEAYRSLASAQCPFLGPPRKRLKQS
partner: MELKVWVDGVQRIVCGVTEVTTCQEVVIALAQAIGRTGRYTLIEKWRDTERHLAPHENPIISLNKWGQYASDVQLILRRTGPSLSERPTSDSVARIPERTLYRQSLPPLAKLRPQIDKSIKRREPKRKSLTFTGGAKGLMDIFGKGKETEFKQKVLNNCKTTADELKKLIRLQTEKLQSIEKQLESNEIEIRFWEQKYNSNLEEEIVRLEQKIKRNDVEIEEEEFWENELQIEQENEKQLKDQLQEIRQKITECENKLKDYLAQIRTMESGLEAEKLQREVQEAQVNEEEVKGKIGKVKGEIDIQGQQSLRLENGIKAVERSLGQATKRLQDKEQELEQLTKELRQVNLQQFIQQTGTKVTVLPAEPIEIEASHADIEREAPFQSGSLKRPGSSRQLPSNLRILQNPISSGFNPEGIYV
B2: Speckle-type POZ protein (Homo sapiens), O43791 (parent)
chain: B1 chain
partner: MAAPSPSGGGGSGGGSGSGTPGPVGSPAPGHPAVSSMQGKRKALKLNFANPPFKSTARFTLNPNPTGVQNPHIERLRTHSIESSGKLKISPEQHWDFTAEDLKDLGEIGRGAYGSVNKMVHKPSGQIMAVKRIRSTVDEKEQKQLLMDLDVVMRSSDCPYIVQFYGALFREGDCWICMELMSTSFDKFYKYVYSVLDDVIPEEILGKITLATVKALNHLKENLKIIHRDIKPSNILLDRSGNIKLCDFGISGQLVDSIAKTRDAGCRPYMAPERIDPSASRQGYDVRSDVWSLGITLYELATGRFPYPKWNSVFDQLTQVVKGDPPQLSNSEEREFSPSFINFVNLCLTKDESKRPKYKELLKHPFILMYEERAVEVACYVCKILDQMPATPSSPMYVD
B3: Speckle-type POZ protein (Homo sapiens), O43791 (parent)
chain: B1 chain
partner: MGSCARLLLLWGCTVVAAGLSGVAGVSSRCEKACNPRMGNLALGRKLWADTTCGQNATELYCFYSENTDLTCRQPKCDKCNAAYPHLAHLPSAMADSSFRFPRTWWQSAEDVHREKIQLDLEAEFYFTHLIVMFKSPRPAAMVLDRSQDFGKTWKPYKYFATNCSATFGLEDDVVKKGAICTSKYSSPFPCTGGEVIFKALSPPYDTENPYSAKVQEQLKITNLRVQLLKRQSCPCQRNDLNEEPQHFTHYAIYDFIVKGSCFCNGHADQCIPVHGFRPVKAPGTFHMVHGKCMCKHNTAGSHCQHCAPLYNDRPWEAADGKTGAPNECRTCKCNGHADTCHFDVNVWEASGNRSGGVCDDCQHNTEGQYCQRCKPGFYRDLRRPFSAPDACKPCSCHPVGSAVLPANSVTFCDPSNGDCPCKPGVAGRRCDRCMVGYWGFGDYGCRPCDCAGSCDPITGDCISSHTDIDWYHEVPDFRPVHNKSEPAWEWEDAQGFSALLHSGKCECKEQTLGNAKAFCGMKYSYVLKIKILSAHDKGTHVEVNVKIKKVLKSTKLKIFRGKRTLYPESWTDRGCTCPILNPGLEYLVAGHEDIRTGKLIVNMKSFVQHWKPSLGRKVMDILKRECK
B4: Speckle-type POZ protein (Homo sapiens), O43791 (parent)
chain: B1 chain
partner: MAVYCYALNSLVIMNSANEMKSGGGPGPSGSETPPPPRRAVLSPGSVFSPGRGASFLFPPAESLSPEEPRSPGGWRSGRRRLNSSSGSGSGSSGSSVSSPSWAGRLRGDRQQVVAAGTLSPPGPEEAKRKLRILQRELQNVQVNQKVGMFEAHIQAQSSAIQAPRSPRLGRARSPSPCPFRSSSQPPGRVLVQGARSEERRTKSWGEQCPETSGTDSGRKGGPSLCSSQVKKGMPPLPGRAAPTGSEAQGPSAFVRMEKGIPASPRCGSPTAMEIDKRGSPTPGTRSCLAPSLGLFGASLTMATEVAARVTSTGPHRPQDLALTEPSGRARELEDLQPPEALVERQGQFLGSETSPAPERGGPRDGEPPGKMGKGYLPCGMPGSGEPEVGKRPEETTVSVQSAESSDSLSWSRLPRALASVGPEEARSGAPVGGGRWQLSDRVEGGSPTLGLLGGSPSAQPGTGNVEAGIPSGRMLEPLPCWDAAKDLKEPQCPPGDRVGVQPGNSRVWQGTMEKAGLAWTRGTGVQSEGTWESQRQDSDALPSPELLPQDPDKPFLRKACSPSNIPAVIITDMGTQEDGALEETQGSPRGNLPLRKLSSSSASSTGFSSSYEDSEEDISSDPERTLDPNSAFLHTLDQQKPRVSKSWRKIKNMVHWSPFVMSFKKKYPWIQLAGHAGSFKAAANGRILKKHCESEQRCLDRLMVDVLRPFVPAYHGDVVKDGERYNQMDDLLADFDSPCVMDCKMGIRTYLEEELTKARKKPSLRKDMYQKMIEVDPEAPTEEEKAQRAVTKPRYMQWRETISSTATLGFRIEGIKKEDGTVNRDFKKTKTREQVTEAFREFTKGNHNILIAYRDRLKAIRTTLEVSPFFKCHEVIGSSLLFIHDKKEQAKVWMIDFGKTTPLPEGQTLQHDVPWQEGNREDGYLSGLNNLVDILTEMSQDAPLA
B5: Speckle-type POZ protein (Homo sapiens), O43791 (parent)
chain: B1 chain
partner: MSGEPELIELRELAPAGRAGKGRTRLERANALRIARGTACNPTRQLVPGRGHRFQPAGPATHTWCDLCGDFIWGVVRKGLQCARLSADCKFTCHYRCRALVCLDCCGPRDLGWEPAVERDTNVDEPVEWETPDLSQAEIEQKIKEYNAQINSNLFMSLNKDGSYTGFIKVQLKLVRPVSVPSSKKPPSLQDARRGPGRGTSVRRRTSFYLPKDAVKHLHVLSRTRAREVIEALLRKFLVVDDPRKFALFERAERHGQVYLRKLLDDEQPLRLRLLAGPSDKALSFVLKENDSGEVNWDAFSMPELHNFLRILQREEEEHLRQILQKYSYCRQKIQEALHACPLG
B6: Speckle-type POZ protein (Homo sapiens), O43791 (parent)
chain: B1 chain
partner: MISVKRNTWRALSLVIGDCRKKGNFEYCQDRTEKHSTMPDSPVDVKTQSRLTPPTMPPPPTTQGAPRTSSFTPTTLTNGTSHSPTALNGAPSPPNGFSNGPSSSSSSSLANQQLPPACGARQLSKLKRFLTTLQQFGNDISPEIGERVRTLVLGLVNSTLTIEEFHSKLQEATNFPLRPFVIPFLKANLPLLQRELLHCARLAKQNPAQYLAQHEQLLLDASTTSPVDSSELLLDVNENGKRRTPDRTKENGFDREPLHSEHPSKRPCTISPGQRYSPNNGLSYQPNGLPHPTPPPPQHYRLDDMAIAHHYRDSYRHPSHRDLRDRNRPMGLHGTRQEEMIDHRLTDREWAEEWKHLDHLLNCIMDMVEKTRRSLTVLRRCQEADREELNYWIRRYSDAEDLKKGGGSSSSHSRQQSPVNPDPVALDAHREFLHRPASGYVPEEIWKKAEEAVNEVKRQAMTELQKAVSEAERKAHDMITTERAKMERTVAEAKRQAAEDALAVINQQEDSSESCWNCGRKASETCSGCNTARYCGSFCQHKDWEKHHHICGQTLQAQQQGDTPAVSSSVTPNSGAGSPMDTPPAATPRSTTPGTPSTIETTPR
B7: Speckle-type POZ protein (Homo sapiens), O43791 (parent)
chain: B1 chain
partner: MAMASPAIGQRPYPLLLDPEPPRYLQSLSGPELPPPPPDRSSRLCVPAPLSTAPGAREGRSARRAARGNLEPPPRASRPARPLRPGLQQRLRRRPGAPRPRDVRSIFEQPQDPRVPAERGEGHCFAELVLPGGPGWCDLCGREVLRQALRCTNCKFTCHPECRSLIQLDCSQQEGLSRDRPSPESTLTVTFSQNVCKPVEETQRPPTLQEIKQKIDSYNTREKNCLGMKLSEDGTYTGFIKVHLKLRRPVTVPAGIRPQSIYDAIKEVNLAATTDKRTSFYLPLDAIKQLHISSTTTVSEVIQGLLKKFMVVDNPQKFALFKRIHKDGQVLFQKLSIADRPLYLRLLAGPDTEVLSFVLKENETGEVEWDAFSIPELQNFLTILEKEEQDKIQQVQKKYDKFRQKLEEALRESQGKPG

One experiment covers variants of B1. Conditions: with rasf8_human RASSF8, Q8NHQ8.
Take F133V: the “effect of a mutation on the interaction” value is “with no effect”.

The next experiment covers variants of B2. The following applies: with mp2k4_human MAP2K4, P45985.
Take Y87C: the “effect of a mutation on the interaction” value is listed as “with no effect”.

Variants of B2 are the subject of the next experiment. The following applies: with mp2k4_human MAP2K4, P45985. This is another data set of the same source.
As for F102C, the “effect of a mutation on the interaction” value was “with no effect”.

The variants in the next experiment derive from B3. The following applies: with net4_human NTN4, Q9HB63.
With F133L, the “effect of a mutation on the interaction” value is “with no effect”.

A further experiment covers variants of B3. Conditions: with net4_human NTN4, Q9HB63. This is another data set of the same source.
As for F133V, the “effect of a mutation on the interaction” value is “with no effect”.

The variants in another experiment derive from B3. The following applies: with net4_human NTN4, Q9HB63. This is another data set of the same source.
On to F102C, for which the “effect of a mutation on the interaction” value is on record as “with no effect”.

Variants of B3 are the subject of a further experiment. Conditions: with net4_human NTN4, Q9HB63. This is another data set of the same source.
On to Y87C, for which the “effect of a mutation on the interaction” value is given as “with no effect”.

The next experiment covers variants of B4. The following applies: with ip3kb_human ITPKB.
With Y87C, the “effect of a mutation on the interaction” value is reported as “with no effect”.

Variants of B4 are the subject of a further experiment. The following applies: with ip3kb_human ITPKB. The source holds these as a separate data set.
Turning to F102C, the “effect of a mutation on the interaction” value is given as “with no effect”.

The next experiment covers variants of B4. The following applies: with ip3kb_human ITPKB. This is another data set of the same source.
Turning to F133L, the “effect of a mutation on the interaction” value is given as “with no effect”.

A further experiment covers variants of B4. The following applies: with ip3kb_human ITPKB. The source holds these as a separate data set.
For the variant F133V, the “effect of a mutation on the interaction” value is recorded as “with no effect”.

In the next experiment the parent is B5. The following applies: with rasf1_human RASSF1, Q9NS23.
As for F102C, the “effect of a mutation on the interaction” value is recorded as “with no effect”.

In another experiment the parent is B5. Conditions: with rasf1_human RASSF1, Q9NS23. The source holds these as a separate data set.
Regarding Y87C, the “effect of a mutation on the interaction” value is “with no effect”.

Another experiment covers variants of B5. Conditions: with rasf1_human RASSF1, Q9NS23. This is another data set of the same source.
For the variant F133V, the “effect of a mutation on the interaction” value is “with no effect”.

The variants in the next experiment derive from B5. Conditions: with rasf1_human RASSF1, Q9NS23. This is another data set of the same source.
Regarding F133L, the “effect of a mutation on the interaction” value was “with no effect”.

In the next experiment the parent is B6. Conditions: with mtg8_human RUNX1T1, Q06455.
With F102C, the “effect of a mutation on the interaction” value is “with no effect”.

In a further experiment the parent is B6. The following applies: with mtg8_human RUNX1T1, Q06455. This is another data set of the same source.
As for F102C, the “effect of a mutation on the interaction” value is listed as “disrupting interaction strength”.
Regarding Y87C, the “effect of a mutation on the interaction” value was “disrupting interaction strength”.
The same measure, in the same setting: with F133L the entry was “disrupting interaction strength”.
Turning to F133V, the “effect of a mutation on the interaction” value was “disrupting interaction strength”.

The variants in another experiment derive from B6. Conditions: with mtg8_human RUNX1T1, Q06455. This is another data set of the same source.
In the case of Y87C, the “effect of a mutation on the interaction” value is given as “with no effect”.

Another experiment covers variants of B6. Conditions: with mtg8_human RUNX1T1, Q06455. The source holds these as a separate data set.
Consider F133L, for which the “effect of a mutation on the interaction” value is listed as “with no effect”.

In the next experiment the parent is B6. The following applies: with mtg8_human RUNX1T1, Q06455. The source holds these as a separate data set.
As for F133V, the “effect of a mutation on the interaction” value is on record as “with no effect”.

The variants in another experiment derive from B7. The following applies: with rasf5_human RASSF5, Q8WWW0.
As to F102C, the “effect of a mutation on the interaction” value is “with no effect”.

These data come from IntAct's records for PubMed 35512704.
